Measurements published in publication PMC7763228, “Structural Studies of HNA Substrate Specificity in Mutants of an Archaeal DNA Polymerase Obtained by Directed Evolution”.

Key:
TgoT_6G12 DNA polymerase [1] = target: T1, TgoT_6G12 DNA polymerase (Thermococcus gorgonarius, UniProt P56689 1-773, V93Q;D141A;E143A;A485L;V589A;E609K;I610M;K659Q;E664Q;Q665P;R668K;D669Q;K671H;K67 …); test: X-ray crystallography; ternary complex with incoming ddTTP, 2 mM MnCl2, 3.15 A; 5% PEG 20K, 0.1 M MES-NaOH pH 6.0; Co-crystallization: protein 5 mg/mL with 1.5x primer-template, 5 mM ddTTP or hCTP/ddCTP, 2 mM MnCl2 (not stated for the 6G12 binary DNA complex); incubated at 4 C (binary) or room temperature; 5-10% PEG 20K, 0.1 M MES-NaOH pH 6.0-6.5; protein buffer 50 mM Tris-HCl pH 7.5, 200 mM NaCl, 0.1 mM EDTA, 1 mM …; details: protein: recombinant, template 5' overhang 8 nt
T1 sequence: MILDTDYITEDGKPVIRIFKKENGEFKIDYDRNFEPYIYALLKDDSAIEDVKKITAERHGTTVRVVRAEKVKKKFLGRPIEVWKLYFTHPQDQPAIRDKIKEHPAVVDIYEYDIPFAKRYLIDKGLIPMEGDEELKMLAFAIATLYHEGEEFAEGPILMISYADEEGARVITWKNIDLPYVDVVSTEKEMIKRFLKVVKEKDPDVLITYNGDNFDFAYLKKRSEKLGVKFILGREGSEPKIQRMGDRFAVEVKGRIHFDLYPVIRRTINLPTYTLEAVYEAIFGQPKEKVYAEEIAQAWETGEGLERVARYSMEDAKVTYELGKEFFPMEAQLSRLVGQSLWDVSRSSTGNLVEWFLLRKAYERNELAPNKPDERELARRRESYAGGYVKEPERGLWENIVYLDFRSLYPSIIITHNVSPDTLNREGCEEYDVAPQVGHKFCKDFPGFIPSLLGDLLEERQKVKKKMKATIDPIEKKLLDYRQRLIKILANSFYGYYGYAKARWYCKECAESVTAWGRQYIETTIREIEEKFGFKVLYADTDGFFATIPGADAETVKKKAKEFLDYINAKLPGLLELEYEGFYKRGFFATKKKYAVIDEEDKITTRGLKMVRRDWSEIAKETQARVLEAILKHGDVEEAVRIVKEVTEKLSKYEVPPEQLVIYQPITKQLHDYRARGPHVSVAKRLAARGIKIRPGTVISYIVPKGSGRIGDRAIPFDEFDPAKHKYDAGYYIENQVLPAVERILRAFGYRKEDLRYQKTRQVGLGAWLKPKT

TgoT_6G12 DNA polymerase [2] = target: T1, TgoT_6G12 DNA polymerase; test: X-ray crystallography; binary complex, 2.8 A; ddTTP added; 10% PEG 20K, 0.1 M MES-NaOH pH 6.5; Co-crystallization: protein 5 mg/mL with 1.5x primer-template, 5 mM ddTTP or hCTP/ddCTP, 2 mM MnCl2 (not stated for the 6G12 binary DNA complex); incubated at 4 C (binary) or room temperature; 5-10% PEG 20K, 0.1 M MES-NaOH pH 6.0-6.5; protein buffer 50 mM Tris-HCl pH 7.5, 200 mM NaCl, 0.1 mM EDTA, 1 mM DTT; details: protein: recombinant, template 5' overhang 8 nt

B1: P5-T13' primer-template (dsDNA)
DNA 1: CGCAT
DNA 2: AACGGCAAATGCG
TgoT_6G12 DNA polymerase [1]
  binding result: binds

B2: P5-T13 primer-template (dsDNA)
DNA 1: CGCAT
DNA 2: AACGGCTAATGCG
TgoT_6G12 DNA polymerase [2]
  binding result: binds
